This note sets out measurements from US8889408B2, “Factor taking part in transcription control” (Sony Corporation, priority 2002, dated 2014).

The test system of assay [1] is retinoic acid receptor. Nature of the assay: RAR reporter CAT analysis in HepG2 cells. Type of assay: cell-based. As to conditions: pcDNA3-HDART 0, 0.5, 1.0 μg; ATRA 10^−8 M; HepG2 cells. How it is done: Since it is shown in the above example that HDART is able to interact with Skip, the functional role of HDART on the transcription route ascribed to a nuclear receptor was analyzed. First, the effect of HDART on the transcription regulation by retinoic acid receptor was analyzed. For this purpose, the CAT analysis was made using a RAR (retinoid acid receptor) reporter plasmid incorporating a thymidine kinase minimum promoter (pTREpal-tata) and CAT gene therein downstream of a retinoid response element.
More particularly, pcDNA3-HDART, capable of steadily expressing HDART, and, at the same time, RAR reporter plasmid, were transfected into HepG2 cells by use of Effectene kit (QIAGEN™). It is to be noted that the pcDNA3-HDART expression vector was introduced in different amounts of 0, 0.5 and 1.0 μg, and the amount of DNA in the respective transfections was equalized at 1 μg by adding the appropriate amount of a vacant vector of pcDNA. After the transfection, growth was made in the presence (10^−8 M) or absence of ATRA and the CAT activity was measured. The results of the measurement (FIG. 6) are indicated in terms of values corrected on the basis of the CAT activity obtained after introduction of 1.0 μg of a vacant vector in the absence of ATRA. In addition, the average of the results of three experiments and a standard deviation in terms of an error bar are also shown.
Next, the influence of the overexpression of N4TPR on the transcription from RAR or a glucocorticoid responsive promoter was checked. It will be noted that this test was made in the same manner as in the reporter analysis set out in Example 4, but using GFP-N4TPR expression vector (0, 0.3 and 0.5 μg).

Assay [2] deals with T1, HDAC1 (Homo sapiens, UniProt Q13547).
T1 construct: made in house
T1 sequence (Q13547 whole entry, species assumed): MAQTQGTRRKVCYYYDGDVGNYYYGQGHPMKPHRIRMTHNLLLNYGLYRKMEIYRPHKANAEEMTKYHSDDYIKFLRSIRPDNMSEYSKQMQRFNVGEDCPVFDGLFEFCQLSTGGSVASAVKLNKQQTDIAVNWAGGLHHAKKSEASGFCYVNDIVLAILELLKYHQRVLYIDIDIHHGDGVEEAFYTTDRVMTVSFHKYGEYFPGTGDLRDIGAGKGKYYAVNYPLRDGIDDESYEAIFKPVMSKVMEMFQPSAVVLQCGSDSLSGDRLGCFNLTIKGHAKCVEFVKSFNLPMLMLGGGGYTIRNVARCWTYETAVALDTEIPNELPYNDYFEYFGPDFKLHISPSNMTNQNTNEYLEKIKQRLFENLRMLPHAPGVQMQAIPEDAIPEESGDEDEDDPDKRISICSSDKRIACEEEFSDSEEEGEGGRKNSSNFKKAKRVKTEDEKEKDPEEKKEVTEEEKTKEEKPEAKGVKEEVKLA
The assay is described as follows: Immunoprecipitation of GFP-HDART with Flag-HDAC in 293 cells. Type of assay: binding. As to conditions: co-transfected 293 cells; anti-FLAG immunoprecipitation. How it is done:
(§1) Flag-HDACs expression vectors capable of expressing different types of HDAC (1, 3, 4 or 6) and a GFP-HDART expression vector were, respectively, co-transfected with 293 cells in the same manner as in Example 2, and cell extracts were prepared 24 hours after the transfection. The respective cell extracts were incubated with an anti-Flag antibody, followed by immunoprecipitation. The resulting immunoprecipitate was isolated with SDS-PAGE and an isolated pattern was transferred to a membrane, followed by immunoblotting with use of an anti-Flag antibody or […]. For reference, in order to confirm the expression of GFP-HDART protein in the respective cells, individual samples prior to the immunoprecipitation were similarly developed with SDS-PAGE to conduct immunoblotting with use of an anti-GFP antibody. […] The kinds of HDAC's from the left side of the figure are as follows: lane 1, HDAC1; lane 3, HDAC3; lane 4, HDAC4; and lane 5, HDAC6. It will be noted that lane 2 is for the sample in which GFP-HDART alone was expressed.

Assay [3] concerns the target T2, HDAC6 (Homo sapiens, UniProt Q9UBN7).
T2 construct: expressed in transfected cells; host or cells: 293 cells
T2 sequence (Q9UBN7 1-1215): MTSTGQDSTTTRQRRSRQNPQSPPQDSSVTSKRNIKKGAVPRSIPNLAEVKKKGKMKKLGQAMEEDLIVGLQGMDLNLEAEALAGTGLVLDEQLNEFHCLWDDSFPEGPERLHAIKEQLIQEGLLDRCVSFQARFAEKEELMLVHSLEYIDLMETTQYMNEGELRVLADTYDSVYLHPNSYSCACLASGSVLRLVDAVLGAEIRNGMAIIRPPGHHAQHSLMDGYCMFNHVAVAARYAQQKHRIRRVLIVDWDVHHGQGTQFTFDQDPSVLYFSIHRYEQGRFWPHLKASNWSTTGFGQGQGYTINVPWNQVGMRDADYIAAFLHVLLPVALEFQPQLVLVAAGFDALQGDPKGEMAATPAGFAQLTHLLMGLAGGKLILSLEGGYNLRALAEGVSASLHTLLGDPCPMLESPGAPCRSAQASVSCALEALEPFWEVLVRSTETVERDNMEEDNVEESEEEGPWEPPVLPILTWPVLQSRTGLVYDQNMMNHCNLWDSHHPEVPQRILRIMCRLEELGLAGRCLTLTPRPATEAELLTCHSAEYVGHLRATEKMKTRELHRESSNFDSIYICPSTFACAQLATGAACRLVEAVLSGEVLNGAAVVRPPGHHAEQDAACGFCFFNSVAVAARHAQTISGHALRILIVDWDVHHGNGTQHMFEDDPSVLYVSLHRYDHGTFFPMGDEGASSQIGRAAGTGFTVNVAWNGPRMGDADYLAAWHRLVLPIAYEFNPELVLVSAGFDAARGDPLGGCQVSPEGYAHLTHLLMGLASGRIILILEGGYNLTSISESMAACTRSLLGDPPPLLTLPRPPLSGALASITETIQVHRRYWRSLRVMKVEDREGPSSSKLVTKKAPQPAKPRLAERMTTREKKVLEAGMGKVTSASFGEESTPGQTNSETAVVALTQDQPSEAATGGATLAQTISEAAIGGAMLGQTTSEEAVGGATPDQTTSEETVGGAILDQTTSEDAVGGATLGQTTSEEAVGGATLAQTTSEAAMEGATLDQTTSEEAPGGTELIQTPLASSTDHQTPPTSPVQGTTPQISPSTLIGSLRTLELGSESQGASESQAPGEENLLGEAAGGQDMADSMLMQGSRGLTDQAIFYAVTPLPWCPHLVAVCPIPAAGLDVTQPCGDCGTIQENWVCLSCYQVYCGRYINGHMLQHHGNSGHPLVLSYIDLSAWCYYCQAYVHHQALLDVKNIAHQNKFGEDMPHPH
The assay is described as above. Type of assay: binding. To be noted: co-transfected 293 cells; anti-FLAG immunoprecipitation. As for the experimental part:
as §1

B1: HDART: HDAC associated repressor TPR protein, 855 amino acids, SEQ ID NO: 2; transcription repressing factor, used as fusions or expressed from vector (protein, listed as Homo sapiens)
chain: MVVMARLSRPERPDLVFEEEDLPYEEEIMRNQFSVKCWLRYIEFKQGAPKPRLNQLYERALKLLPCSYKLWYRYLKARRAQVKHRCVTDPAYEDVNNCHERAFVFMHKMPRLWLDYCQFLMDQGRVTHTRRTFDRALRALPITQHSRIWPLYLRFLRSHPLPETAVRGYRRFLKLSPESAEEYIEYLKSSDRLDEAAQRLATVVNDERFVSKAGKSNYQLWHELCDLISQNPDKVQSLNVDAIIRGGLTRFTDQLGKLWCSLADYYIRSGHFEKARDVYEEAIRTVMTVRDFTQVFDSYAQFEESMIAAKMETASELGREEEDDVDLELRLARFEQLISRRPLLLNSVLLRQNPHHVHEWHKRVALHQGRPREIINTYTEAVQTVDPFKATGKPHTLWVAFAKFYEDNGQLDDARVILEKATKVNFKQVDDLASVWCQCGELELRHENYDEALRLLRKATALPARRAEYFDGSEPVQNRVYKSLKVWSMLADLEESLGTFQSTKAVYDRILDLRIATPQIVINYAMFLEEHKYFEESFKAYERGISLFKWPNVSDIWSTYLTKFIARYGGRKLERARDLFEQALDGCPPKYAKTLYLLYAQLEEEWGLARHAMAVYERATRAVEPAQQYDMFNIYIKRAAEIYGVTHTRGIYQKAIEVLSDEHAREMCLRFADMECKLGEIDRARAIYSFCSQICDPRTTGAFWQTWKDFEVRHGNEDTIKEMLRIRRSVQATYNTQVNFMASQMLKVSGSATGTVSDLAPGQSGMDDMKLLEQRAEQLAAEAERDQPLRAQSKILFVRSDASREELAELAQQVNPEEIQLGEDEDEDEMDLEPNEVRLEQQSVPAAVFGSLKED
B1: the “ATRA-induced CAT activity” value in assay [1] is listed as “inhibited by HDART in a concentration dependent manner”. In addition, in assay [2], the “interaction with HDAC1” value was “exhibits interaction”. The “interaction with HDAC6” value in assay [3] is given as “exhibits interaction”.
